Legend:
GST-NS2A (Zika virus) = test: EMSA; conditions: EMSA: 50 mM Tris-HCl pH 7.5, 10 mM 2-mercaptoethanol, 2 mM MgCl2, 50 mM KCl, 15 min at 24 C, 100 pM biotinylated RNA, 0.4% agarose; pull-down: Pierce magnetic …
[1] = system: GST-NS2A(58-133) (Zika virus); test: pull-down; conditions: EMSA: 50 mM Tris-HCl pH 7.5, 10 mM 2-mercaptoethanol, 2 mM MgCl2, 50 mM KCl, 15 min at 24 C, 100 pM biotinylated RNA, 0.4% agarose; pull-down: Pierce magnetic …

5' UTR-C66-3' UTR-biotin RNA
Kd (GST-NS2A (Zika virus)): 10.3 nM
binding signal (% (reference)) [1]: 100
